The text below walks through data of US20250327050.

The subject of series [1] is T1, MBP-ZC3H14 full-length S475A mutant.
T1 sequence: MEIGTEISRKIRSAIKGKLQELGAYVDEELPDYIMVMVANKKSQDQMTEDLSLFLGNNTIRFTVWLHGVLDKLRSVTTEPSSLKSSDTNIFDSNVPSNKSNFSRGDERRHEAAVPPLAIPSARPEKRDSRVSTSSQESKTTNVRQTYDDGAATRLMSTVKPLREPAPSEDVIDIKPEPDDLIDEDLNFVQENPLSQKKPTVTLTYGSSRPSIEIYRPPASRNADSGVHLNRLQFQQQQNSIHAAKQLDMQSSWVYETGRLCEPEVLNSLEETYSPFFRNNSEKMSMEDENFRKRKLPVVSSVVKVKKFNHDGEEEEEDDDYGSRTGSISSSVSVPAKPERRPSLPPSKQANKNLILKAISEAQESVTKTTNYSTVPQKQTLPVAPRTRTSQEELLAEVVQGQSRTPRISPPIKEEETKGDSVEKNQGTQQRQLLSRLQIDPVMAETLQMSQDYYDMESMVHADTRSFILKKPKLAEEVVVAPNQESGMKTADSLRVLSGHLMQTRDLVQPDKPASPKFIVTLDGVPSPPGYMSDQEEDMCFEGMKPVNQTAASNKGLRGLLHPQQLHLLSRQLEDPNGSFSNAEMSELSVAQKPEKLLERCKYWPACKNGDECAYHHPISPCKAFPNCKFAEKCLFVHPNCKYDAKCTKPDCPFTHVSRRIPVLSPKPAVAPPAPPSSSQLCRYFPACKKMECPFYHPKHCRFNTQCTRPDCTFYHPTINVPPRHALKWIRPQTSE

For series [2], the system named is T2, MBP-ZC3H14 full-length wildtype (residues 1-736).
T2 sequence: T1 sequence with A475S

Residue numbers refer to the chain shown, from its start.

On to “Cdk13 (694-1039) / Cyclin T1 (1-272, T149E) kinase complex”, for which, in series [1], the anti-thiophosphorylation immunoblot entry is listed as “CDK13 directly phosphorylates ZC3H14 WT but not ZC3H14 S475A” and the “in vitro kinase assay P32 counts per minute minus time zero” value is reported as “CDK13 directly phosphorylates ZC3H14 WT but not ZC3H14 S475A”. Moreover, in series [2], the anti-thiophosphorylation immunoblot entry was “CDK13 directly phosphorylates ZC3H14 WT but not ZC3H14 S475A” and the “in vitro kinase assay P32 counts per minute minus time zero” value is “CDK13 directly phosphorylates ZC3H14 WT but not ZC3H14 S475A”.
